From the supplement of paper PMC12764529
± gives the half width of the 95% confidence interval.

Assays:
[1] = folding stability dG unfold from trypsin proteolysis; higher = more stable
Method in brief: (§1)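 Mini-proteins designed to be under 80 residues and free of cysteine were carried in a PA-tagged cDNA display construct and digested with trypsin and with chymotrypsin. Each protease was applied at 11 threefold-diluted concentrations, alongside a no-protease condition, before sequencing. K50 came from Bayesian fitting of the sequencing counts, and unfolding free energy was obtained by comparing it with a sequence-predicted unfolded-state K50 and a shared folded-state K50, for each protease separately or for both together. Designs were retained only if their AlphaFold2 dimer inter-PAE exceeded 15.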

[2] = folding stability dG unfold from chymotrypsin proteolysis; higher = more stable
Method in brief: as §1

[3] = folding stability dG unfold (combined trypsin and chymotrypsin); higher = more stable
Method in brief: as §1

Sequence | folding stability dG unfold [1] | folding stability dG unfold [2] | folding stability dG unfold [3]
SAGGMKIEIELEDGYLRVKIYDKDGKLIEEIEIKIEKVEPPPEVEVELSPEELAKKLGVEIEIKEKESAGGS [r16_778_TrROS_Hall] | 1.62 ± 0.18 kcal/mol | 2.38 ± 0.2 kcal/mol | 2.32 ± 0.44 kcal/mol
SAGGMKIEKIFSSEEEAKAAAEKIKNETPEGKELKIEISKIPLKENLPPESPEILDEERYIVKVELPSAGGS [r16_795_JUSTAS] | 0.816 ± 0.078 kcal/mol | 0.116 ± 0.42 kcal/mol | 0.467 ± 0.24 kcal/mol
SAGGMKIIEIEDRGPGKFAGPETVLEALRKALPGIPIEVLDYDPEKHVIRIRVPEEAVPRIVEAFKSSAGGS [r8_235_TrMRF] | 3.68 ± 0.098 kcal/mol | 3.96 ± 0.056 kcal/mol | 3.88 ± 0.057 kcal/mol
SAGGMKIIPITPEMIEEAKKLGLTPEDEAFEFEVTLPNGEVLRGTLIIPPDNPDIPVEAEPYLNLDKSAGGS [r16_497_TrMRF] | 0.555 ± 0.1 kcal/mol | 0.904 ± 0.092 kcal/mol | 0.703 ± 0.18 kcal/mol
SAGGMKIKLKDGSEITIGSEPGRLVIVLRPPGPRSRKVIPFPVPSKEHGFVAAVNELLSLEDIEEIEPSAGG [r13_579_TrMRF] | 0.379 ± 0.11 kcal/mol | 1.34 ± 0.077 kcal/mol | 1.15 ± 0.2 kcal/mol
SAGGMKIKLKNGKVIEIKKKPGYIEIKIIDKKTKKVYTYTFKSKDGKISLEDLAKKLAELPNIKEIIPSAGG [r13_579_TrROS_Hall] | 3.3 ± 0.29 kcal/mol | 4.48 ± 0.15 kcal/mol | 4.27 ± 0.32 kcal/mol
SAGGMKIKTKSGKELTLKKIKLKYKNKEYEIENLKIKAIKYDPKKKIVHIEVTHPNGKKYTFDLKIKSAGGS [r8_215_TrMRF] | 1.69 ± 0.052 kcal/mol | 3.49 ± 0.086 kcal/mol | 2.8 ± 0.21 kcal/mol
SAGGMKIRIPEGQEVKLKKVRFWHNGKPWKIPNMEIKVDRIDPNDNRVQIEIKHPNGRPHTFAFDIKSAGGS [r8_215_TrROS] | 0.459 ± 0.11 kcal/mol | 0.456 ± 0.13 kcal/mol | 0.512 ± 0.086 kcal/mol
SAGGMKITITYDKETKTITVKITYPDGTTEELTIEVPPEKKTPEEIAEELKKLIEERFGKKVEIEIVSAGGS [r8_166_TrROS_Hall] | 3.82 ± 0.26 kcal/mol | 2.45 ± 0.18 kcal/mol | 2.98 ± 0.15 kcal/mol
SAGGMKITKEGNELTLTYPNLTVTYDPNTGKMTITNPATGKTVTIPVPATSLEEKLAAVEEVKAALPSAGGS [r8_447_JUSTAS] | 1.06 ± 0.025 kcal/mol | 0.707 ± 0.042 kcal/mol | 0.918 ± 0.041 kcal/mol
SAGGMKITLPPGAEITEVFELPDGQLLLRVRHKDTGKTEVVPASDLEIEIEPGEEVEVEIFRVPKEDLSAGG [r13_173_TrROS_Hall] | 1.38 ± 0.069 kcal/mol | 1.45 ± 0.13 kcal/mol | 1.39 ± 0.14 kcal/mol
SAGGMKIVEITEEVPPGAVVRITFEDGSKREIKIPNVAELKGKKITLELPGLKVVKIEVVPAKEGEEVSAGG [r13_587_TrROS_Hall] | 2.3 ± 0.15 kcal/mol | 1.69 ± 0.29 kcal/mol | 2.05 ± 0.48 kcal/mol
SAGGMKKITITIPLEELKNLTPEERKEKLKELAEEIAKKLGLPPGAKIKKIEVEEVDGKLYVKIEIESAGGS [r16_368_TrROS_Hall] | 3.82 ± 0.18 kcal/mol | 3.93 ± 0.066 kcal/mol | 3.92 ± 0.1 kcal/mol
SAGGMKKTVTITITEELPTETGEYKTKTVTTTLTVTPPPPEVTEEEKLREKALKENPNVSPDDPKALLSAGG [r13_136_JUSTAS] | -0.948 ± 0.6 kcal/mol | 0.535 ± 0.11 kcal/mol | 0.153 ± 0.14 kcal/mol
SAGGMKLEFEAEITVPLPVPTPEGGLEFVPITEPIRIEAEHPEELEIALKEAELETIERALKELGIESAGGS [r16_339_TrMRF] | -0.594 ± 0.19 kcal/mol | -0.723 ± 0.16 kcal/mol | -0.845 ± 0.59 kcal/mol
SAGGMKLVVTKVGEDDNTEYYLITDPGSAEAIREAIKKLVPKDLPYKVTVLSYDPATGTYTVLVEVKRSAGG [r13_491_JUSTAS] | 2.91 ± 0.13 kcal/mol | 3.67 ± 0.039 kcal/mol | 3.44 ± 0.11 kcal/mol
SAGGMKPGEKVLVKITLKKEVFKNENGEEVKVEEKEILIELEVDSLEEALEALKKLLPPGAEIEVLPSAGGS [r16_282_TrROS_Hall] | 3.52 ± 0.13 kcal/mol | 3.1 ± 0.047 kcal/mol | 3.24 ± 0.13 kcal/mol
SAGGMKPGESSTVPPVVERTTSPDSLGNPRYTVTRVTEITVTYFPDSINVTVTTETTVVSTATPGLLSAGGS [r8_70_JUSTAS] | 2.2 ± 0.059 kcal/mol | 1.15 ± 0.031 kcal/mol | 1.78 ± 0.07 kcal/mol

Sequence | folding stability dG unfold [1] | folding stability dG unfold [2] | folding stability dG unfold [3]
SAGGMKPGQPWHEIEVQREIDLPPGQISAEEIADLIAELFPGFRVEDFRIEFTGKKWRIDVTIYIPYSAGGS [r8_202_TrROS] | 2.56 ± 0.073 kcal/mol | 3.49 ± 0.039 kcal/mol | 3.14 ± 0.11 kcal/mol
SAGGMKTAVLTLEVPGLPKRLVLIAGESEEEYKKLAAEAEKPGYEFLGYTTLEELVERTGLPASLLLSAGGS [r16_438_JUSTAS] | 0.916 ± 0.085 kcal/mol | 1.07 ± 0.28 kcal/mol | 0.969 ± 0.19 kcal/mol
SAGGMKTFEKPMTAEEVMALLEEIAKKGNVNVTIETEGKTYEVDPSKAKPIPPENVTAKITITELPKSAGGS [r16_628_JUSTAS] | -0.051 ± 0.15 kcal/mol | -0.182 ± 0.17 kcal/mol | 0.186 ± 0.28 kcal/mol
SAGGMKTLRLVVTVKVPKETGKPTVAEKLAEELAKLPGVEVVKVEVKRLENGTVVVTIEIKVPKELKPSAGG [r13_428_TrROS_Hall] | 3.13 ± 0.23 kcal/mol | 3.36 ± 0.061 kcal/mol | 3.18 ± 0.13 kcal/mol
SAGGMKTVEIEIPVPPGMSIEELVKKLLEELKKKKDIKEVEIEITLKDGSKIKIRVNKNGKIVKVEKLSAGG [r13_690_TrROS_Hall] | 1.73 ± 0.056 kcal/mol | 2.46 ± 0.11 kcal/mol | 2.25 ± 0.15 kcal/mol
SAGGMKVKKIPVIVKILRKKDKKPIKEIPALAYKVDDKIYLVFEKPKDIKIAKEIAEKTGLPIEIYPSAGGS [r16_327_TrMRF] | 1.01 ± 0.025 kcal/mol | 2.02 ± 0.062 kcal/mol | 1.66 ± 0.066 kcal/mol
SAGGMKVRIRIEVDGKTLELELEVEPGETVKITLEVNGEEVTITFDAATGEITIELPPGAKIVEIEPSAGGS [r16_761_TrROS_Hall] | 3.56 ± 0.23 kcal/mol | 4.52 ± 0.46 kcal/mol | 4.01 ± 0.39 kcal/mol
SAGGMKVTILEVKPDEVVVKTSDGKTYVFPEVIKELKEKGGGVLPTKEEIAEYLKKNNIPVDDVEFGLSAGG [r13_610_JUSTAS] | 0.436 ± 0.1 kcal/mol | 1.9 ± 0.058 kcal/mol | 1.6 ± 0.15 kcal/mol
SAGGMKVTPNGKVVKKKPKVPVKKVTLTVKVKTAEEAKALADALRDLGYKVTVDEETGVVTVEVEIESAGGS [r16_765_TrROS_Hall] | 0.996 ± 0.079 kcal/mol | 1.5 ± 0.058 kcal/mol | 1.28 ± 0.1 kcal/mol
SAGGMKVTRLPNALVFEYPLPNSTLRIVVTPGDGTYTLELYRDGKLIATFPSPGPVADLVEAAIKALSAGGS [r8_276_TrMRF] | 2.55 ± 0.053 kcal/mol | 3.2 ± 0.033 kcal/mol | 3.01 ± 0.073 kcal/mol
SAGGMKVTTKPLPSDSEVVDIPGGVTMKIDPKTGVGTITLPDGKTLKMTITKDPNKNTTTITITPESSAGGS [r8_186_JUSTAS] | 0.366 ± 0.16 kcal/mol | 1.14 ± 0.2 kcal/mol | 0.998 ± 0.22 kcal/mol
SAGGMKVVIYVKDPEKFLKAIEEIENIPLENVKFEPLEGDYYKYEFPNLEAVEELIKKGYDILKIEPSAGGS [r16_381_TrMRF] | 1.96 ± 0.09 kcal/mol | 2.57 ± 0.03 kcal/mol | 2.34 ± 0.083 kcal/mol
SAGGMLIIRIEIEIEKNGKKEKKEILIVAKTEEEAKKAAEKIAKEKGLKIKKIEILPFKSLEELKKALSAGG [r13_949_TrROS_Hall] | 2.12 ± 0.061 kcal/mol | 3.45 ± 0.037 kcal/mol | 3.11 ± 0.089 kcal/mol
SAGGMLLLTLTVDRVEEAEFPEKVPYLRTTTQPVVVPGTTLEEAEAVAAALAAAHGVPVTLTVTPETGSAGG [r13_320_JUSTAS] | -0.314 ± 0.16 kcal/mol | -0.175 ± 0.11 kcal/mol | -0.189 ± 0.072 kcal/mol
SAGGMLTLEEIKKAKPGEKLEIEVDGKIYLVEIKKNENGELTLTVKKVDKETGEIVEEKTISLEELLSAGGS [r16_763_TrROS_Hall] | 2.91 ± 0.11 kcal/mol | 3.78 ± 0.077 kcal/mol | 3.53 ± 0.07 kcal/mol
SAGGMLVVLLDDRPEVLPVNPERFETPEEAVEAVAREVAERFPDAGERRVVVVNEDGEEVATVELTPESAGG [r13_257_TrMRF] | -1.08 ± 0.12 kcal/mol | 0.875 ± 0.04 kcal/mol | 0.459 ± 0.052 kcal/mol
SAGGMMEVEEREVEIELELEPGQSIEEALRELLGLEEGDEIVDVEVEVDPETRKVKIRVVILRPPEEESAGG [r13_828_TrROS_Hall] | 4.24 ± 0.39 kcal/mol | 2.79 ± 0.2 kcal/mol | 3.68 ± 0.52 kcal/mol
